The source of these data is US20120156193A1 (IMMUNAS PHARMA, published 2012).

Changes are numbered by the printed parent chain.

B1: IR-099 antibody (antibody, V domains shown)
VH: DVQLVESGGGLVQPGGSRKLSCAASGFTFSRFGMHWVRQAPEKGLEWVAYISSGRSTIYYADTVKGRFTISRDNPKNTLFLQMTSLRSEDTAMYYCARGGGNYVGAMDYWGQGTSVTVSS
VL: DAVMTQTPLSLPVSLGDQASISCRSSQSLENSNGNTYLNWYLQKPGQSPQLLIYRVSNRFSGVLDRFSGSGSGTDFTLKISRVEAEDLGVYFCLQVTHVPPTFGGGTKLEIK
notes: Mouse monoclonal from a hybridoma
B2: IR-003 antibody (antibody, V domains shown)
VH: QVTLKESGPGILQPSQTLSLTCSFSGFSLSTSGMGVSWIRQPSGKGLEWLAHIYWDDDKRYNPSLKSRLTISKDTSSNQVFLKITSVDTADTATYYCARRGEVRRRGYYAMDYWGQGTSVTVSS
VL: DVVMTQTPLSLPVSLGDQASISCRSSQSLVHSNGNTYLHWYLQKPGQSPKLLIYKVSNRFSGVPDRFSGSGSGTDFTLKISRVEAEDLGVYFCSQSTHVPLTFGAGTKLELK
notes: Mouse monoclonal from a hybridoma (BALB/c); constant regions are not
B3: IR-148 antibody (antibody, V domains shown)
VH: DVQLVESGGGLVQPGGSRKLSCAASGFTFSSFGMHWVRQAPEKGLEWVAYISSGSSTIYYADTVKGRFTISRDNPKNTLFLQMTSLRSEDTAMYYCARDYYGMDYWGQGTSVTVSS
VL: B2 VL
notes: as for B1
B4: IR-130 antibody (antibody, V domains shown)
VH: EVKLVESGGGLVQPGGSLKLSCATSGFTFSDYYMYWVRQTPEKRLEWVAYISNGGGSTYYPDTVKGRFTISRDNAKNTLYLQMSRLKSEDTAMYYCARGTSYGSSLHYYAMDYWGQGTSVTVSS
VL: B2 VL
notes: as for B1
B5: IR-103 antibody (antibody, V domains shown)
VH: DVQLVESGGGLVQPGGSRKLSCAASGFTFSSFGMHWVRQAPEKGLEWVAYISSGSSTIYYADTVKGRFTISRDNPKNTLFLQMTSLRSEDTAMYYCARSPLLRLQGLAYWGQGTLVTVSA
VL: B2 VL with V3L, L29I, H39E, F92Y, S94F, S96G, T97S, L101P, A105G, L111I
notes: as for B1
B6: IR-091 antibody (antibody, V domains shown)
VH: QVTLKESGPGILKPSQTLSLTCSFSGFSLSTSGMGVGWIRQPSGKGLEWLAHIWWDDDKYYNPSLKSQLTISKDTSRNQVFLKITSVDTADTATYYCARRGLRRGDYFDYWGQGTTLTVSS
VL: B2 VL with V3L, L29I, H39E, F92Y, S94F, S96G, T97S
notes: as for B1

The target of this assay is T1, A beta 1-40 oligomer (synthetic A beta1-40, HCl form, 0.1 mg/ml in PBS, incubated at 37 degrees C for one … (UniProt P05067 672-711)).
T1 construct: domain: A beta 1-40; Non-fibrous assembly of many copies of the same peptide; also called A beta oligomer
Briefly: SPR, Biacore 3000, A beta oligomer on CM5 chip, antibody as analyte. On the procedure:
The analysis was carried out by Surface Plasmon Resonance (SPR) using Biacore 3000 (GE Healthcare Sciences).
A general note: SPR reads the build-up and loss of mass on a sensor chip optically.
In the case of B1, binding was characterised by a dissociation constant (Kd) of 9.3 nM; the koff (as a rule, the first-order rate constant of dissociation) is 0.00252 s⁻¹; the kon (usually the rate constant with which the complex forms) is 271000 M⁻¹ s⁻¹.
Consider B2, for which binding was characterised by a dissociation constant (Kd) of 24.5 nM, the koff stood at 0.00232 s⁻¹ and the kon amounted to 94800 M⁻¹ s⁻¹.
As to B3, binding was put at a Kd of 38.6 nM, the koff came out at 0.000931 s⁻¹ and the on-rate constant (kon) came out at 24100 M⁻¹ s⁻¹.
The corresponding values for B4 are 667 nM, 0.11 s⁻¹ and 165000 M⁻¹ s⁻¹.
Consider B5, for which the dissociation constant (Kd) – broadly, the constant that tells how readily two partners part at equilibrium – stood at 43.9 nM; the koff is 0.00571 s⁻¹; the on-rate constant (kon) is 130000 M⁻¹ s⁻¹.
For B6, the Kd was determined as 7.37 nM, the koff came to 0.00188 s⁻¹ and the kon was determined as 255000 M⁻¹ s⁻¹.
